What is called Km is the concentration of substrate that gives half-maximal velocity. Usually Kd stands for the concentration at which binding is half-saturated.

In PMC6715182, “Helicobacter pylori senses bleach (HOCl) as a chemoattractant using a cytosolic chemoreceptor” (PLoS Biology, 2019) one finds Km and Kd data, which are given here for three substances.

In series [1] the test system is Nc1ncnc2c1ncn2[C@@H]1O[C@H](COP(=O)(O)OP(=O)(O)OP(=O)(O)O)[C@@H](O)[C@H]1O. The series is described as follows: purified protein. The note with it: Mg2+ ([…] MgCl2).
The target of series [2] is Helicobacter pylori transducer-like protein D lacking the N-terminal His tag, TlpD(-His) (Helicobacter pylori (SS1 strain)) (UniProt B5Z6X0). The series is described as follows: AUC; interference experiments, 3 x 28 uM TlpD(-His) in PBS (pH 7), 1 mM TCEP, 20 C, 55,000 rpm; KD from the integrated monomer and dimer peaks; dimer to monomers.
In series [3] the target is CheW (Escherichia coli) (UniProt P0A964). The note with it: cited from earlier work.

CheA, sequence (P07363 whole entry): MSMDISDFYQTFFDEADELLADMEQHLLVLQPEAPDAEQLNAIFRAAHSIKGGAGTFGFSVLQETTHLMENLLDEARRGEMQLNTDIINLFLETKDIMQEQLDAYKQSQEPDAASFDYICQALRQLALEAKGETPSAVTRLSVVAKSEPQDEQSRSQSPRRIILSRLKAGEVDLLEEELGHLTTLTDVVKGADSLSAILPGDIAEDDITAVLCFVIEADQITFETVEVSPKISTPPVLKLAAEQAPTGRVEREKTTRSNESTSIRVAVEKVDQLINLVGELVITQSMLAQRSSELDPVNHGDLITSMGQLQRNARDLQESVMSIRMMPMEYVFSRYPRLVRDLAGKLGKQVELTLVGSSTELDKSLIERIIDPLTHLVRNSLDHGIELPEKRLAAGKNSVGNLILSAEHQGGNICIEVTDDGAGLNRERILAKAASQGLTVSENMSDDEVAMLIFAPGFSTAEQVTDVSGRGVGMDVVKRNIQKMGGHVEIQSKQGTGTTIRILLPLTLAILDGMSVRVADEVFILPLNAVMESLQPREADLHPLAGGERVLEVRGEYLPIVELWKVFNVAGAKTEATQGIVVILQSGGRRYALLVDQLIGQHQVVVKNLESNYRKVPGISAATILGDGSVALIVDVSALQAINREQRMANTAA

Take CheA (Helicobacter pylori G27): in series [1], the Michaelis constant (Km) was 136 µM.
For “Helicobacter pylori transducer-like protein D lacking the N-terminal His tag, TlpD(-His) (from UniProt B5Z6X0 1-433) (receptor)”, the dissociation constant Kd in series [2] worked out at 0.0657 µM.
On to CheA (from UniProt P07363), for which the Kd in series [3] is 17 µM.
